The source of these data is patent publication US20220162338A1 (SICHUAN KELUN BIOTECH BIOPHARMACEUTICAL, published 2022).

Positions count from the first letter of the chain named. Numbers in names are those of the source.

Assay [1] concerns the target T1, human FXIa (activated human coagulation Factor XI) (human, UniProt P03951 19-387; P03951 388-625).
T1 construct: Bought protein; also called FXIa protein; FXIa antigen
The assay is described as follows: BLI (Octet ForteBio), biotin-labeled antibody on streptavidin sensor, FXIa in solution, bivalent model. On the technique in general: Biolayer interferometry detects binding as a change in optical thickness at a sensor tip.
Description: (§1) The specific experimental steps were as follows: the streptavidin biosensors was first bound with the biotin-labeled antibody to be tested to reach a response signal value of 0.8 nm, then bound with FXIa protein (3.2, 1.6, 0.8, 0.4, 0.2, 0.1, 0.05, and 0 μg/mL) for 5 minutes, then dissociation was performed for 7 minutes, and the bivalent analysis model was used for all fitting analysis.

Assay [2] addresses T1, human FXIa (activated human coagulation …). The assay is described as follows: BLI (Octet ForteBio), ratio of KD against BAY-1213790.
Description: as §1
The target is the same in assay [3]. The assay is described as follows: BLI (Octet ForteBio), ratio of KD against 14E11.
Description: as §1
For assay [4], the target named is T2, human FXI (human coagulation Factor XI) (human, UniProt P03951 19-625).
T2 construct: Bought protein; Biotin-labeled form (HCXI-0150-B) was used in the hybridoma screen; also called FXI protein; FXI antigen
The assay is described as follows: BLI (Octet Fortebio), antibody on AHC (anti-human-Fc) sensor, FXI in solution.
Description: Octet Fortebio® was used for the affinity determination of chimeric and humanized antibodies. […] The data obtained were analyzed by Octet data analysis software.

In assay [5] the target is T1, human FXIa (activated human coagulation …). The assay is described as follows: ELISA, FXIa coated at 1 µg/mL, HRP goat-anti-human detection. Background: In an ELISA, binding on a coated surface is turned into a signal by an enzyme label.
For assay [6] the target is unchanged. The assay is described as follows: cell-based or functional assay.
For assay [7] the target is unchanged. The assay is described as follows: cell-based or functional assay. The source holds these as a separate data set.
Assay [8] shares this target. The assay is described as follows: cell-based or functional assay. This is another data set of the same source.
For assay [9], the target named is T3, human FXI antigen expressed in 293F cells (human, UniProt P03951 19-625, limits assumed).
T3 construct: also called FXI antigen (PMD-F11 plasmid cloned into PLVX-IRES-PURO, 293F)
The assay is described as follows: ELISA, FXI antigen (293F) coated at 1 µg/mL, HRP goat-anti-human detection.

B1: murine antibody 36G9.10 (antibody, mouse IgG1, V domains shown)
VH: EVQLQQSGAELVKPGASVKLSCTASGFNIKDTYIHWVKQRPEQGLEWIGRIDPANDNTKYDPKFQGKATITADTSSNTAYLQLSSLTSEDSAVYYCAQDYDGFAMDYWGQGTSVTVSS
VL: DIQMTQSPSSLSASLGGKVTITCKASQDINKYITWFQHKPGKGPRLLIHYTSTLQPGIPSRFSGSGSGRDYSFSISNLEPEDSATYYCLQYDYLLTFGGGTKLEIK
notes: also called 36G9.10 murine antibody; murine anti-human FXI/FXIa monoclonal antibody
For orientation: koff means the first-order rate constant of dissociation. Read a low koff as a long-lived complex. For orientation: kon means the rate constant with which the complex forms. Low values mean slow association, high ones fast association. As for B1, in assay [1], the Kd came out at 0.48 nM, the koff stood at 0.00072 s⁻¹ and the kon was determined as 1.5e+06 M⁻¹ s⁻¹. Further, the “fold stronger affinity than BAY-1213790” value in [2] was determined as 2.5 times. Also, the “fold stronger affinity than 14E11” value in assay [3] was 1.7 times.

B2: chimeric antibody 36G9.10-hz00 (antibody, human IgG1, kappa, N297A, V domains shown)
VH: B1 VH
VL: DIQMTQSPSSLSASLGGKVTITCKASQDINKYITWFQHKPGKGPRLLIHYTSTLQPGIPSRFSGSGSGRDYSFSISNLEPEDSATYYCLQYDYLLTFGGGTKLEIKR
notes: Murine variable regions grafted to human IgG1 (N297A) and human kappa constant regions
In assay [4], B2 had a Kd of 0.00366 nM, an off-rate constant (koff) of 2.39e-05 s⁻¹ and a kon of 6.52e+06 M⁻¹ s⁻¹.

B3: BAY-1213790 (antibody, V domains shown)
VH: EVQLLESGGGLVQPGGSLRLSCAASGFTFSQYGMDWVRQAPGKGLEWVSGIGPSGGSTVYADSVKGRFTISRDNSKNTLYLQMNSLRAEDTAVYYCTRGGPYYYYGMDVWGQGTTVTVSS
VL: DIQMTQSPSSLSASVGDRVTITCQASQDISNYLNWYQQKPGKAPKLLIYDASNLETGVPSRFSGSGSGTDFTFTISSLQPEDIATYYCQQADSFPVTFGGGTKVEIKR
One may read the EC50 as the concentration at which the effect is half-maximal. B3 came in with a concentration giving a half-maximal response (EC50) in assay [5] of 6.16 ng/mL. In [1], the Kd came out at 1.19 nM, the koff was determined as 0.00109 s⁻¹ and the kon was determined as 918000 M⁻¹ s⁻¹. In assay [4], this molecule yielded a Kd of 0.374 nM, a koff of 0.00034 s⁻¹ and a kon of 910000 M⁻¹ s⁻¹. Also, the “IC50 value (ng/mL), inhibition of the catalytic effect of FXIa on fluorescent substrate I-1575” value in assay [6] was determined as 70 ng/mL.

B4: humanized antibody 36G9.10-hz73 (antibody, human IgG1, kappa, N297A, V domains shown)
VH: EVQLVQSGAEVKKPGATVKISCKASGFNIKDTYIHWVQQAPGKGLEWMGRIDPANDNTIYAEKFQGRVTITADTSTNTAYMELSSLRSEDTAVYYCAQDYDGFAMDYWGQGTLVTVSS
VL: DIQMTQSPSSLSASVGDRVTITCKASQDINKYITWFQQKPGKAPKLLIHYTSTLQPGVPSRFSGSGSGRDYTLTISSLQPEDFATYYCLQYDYLLTFGGGTKVEIKR
In assay [5], B4 registered an EC50 of 2.49 ng/mL. In addition, in [7], the “APTT in human plasma, fold prolongation” value was 2.2 times. In assay [8], the “APTT detection (EC50, nM), sample at 0 days” value was 18.4 nM; the “APTT detection (EC50, nM), sample stored at 25° C. for 28 days” value amounted to 17.4 nM; the “APTT detection (EC50, nM), sample stored at 40° C. for 14 days” value is 20.3 nM; the “APTT detection (EC50, nM), sample stored at 40° C. for 28 days” value was 26.9 nM. Also, in assay [4], the Kd was 0.0103 nM, the off-rate (koff) is 6.51e-05 s⁻¹ and the association rate constant (kon) is 6.31e+06 M⁻¹ s⁻¹. In assay [9], it took 9.68 ng/mL to reach a half-maximal effect (EC50). Moreover, the “IC50 value (ng/mL), inhibition of the catalytic effect of FXIa on fluorescent substrate I-1575” value in [6] stood at 26.2 ng/mL.

B5: humanized antibody 36G9.10-hz74 (antibody, human IgG1, kappa, N297A, V domains shown)
VH: B4 VH
VL: B4 VL with F36Y, H49Y, R69T, Y71F, L73F, F83I
In assay [4], B5 showed a Kd of 0.00798 nM, a koff of 5.16e-05 s⁻¹ and a kon of 6.47e+06 M⁻¹ s⁻¹.

B6: humanized antibody 36G9.10-hz43 (antibody, human IgG1, kappa, N297A, V domains shown)
VH: QVQLVQSGAEVKKPGASVKVSCKASGFNIKDTYIHWVRQAPGQGLEWIGRIDPANDNTNYAQKFQGRVTMTADTSINTAYMELSRLRSDDTAVYYCAQDYDGFAMDYWGQGTLVTVSS
VL: B4 VL
Consider B6, for which, in assay [4], the Kd came out at 0.0441 nM, the koff was determined as 0.000255 s⁻¹ and the kon is 5.77e+06 M⁻¹ s⁻¹.

B7: humanized antibody 36G9.10-hz93 (antibody, human IgG1, kappa, N297A, V domains shown)
VH: B4 VH with M48I, I59K, A61D, E62P
VL: B4 VL
In [4], B7 yielded a Kd of 0.00881 nM, an off-rate constant (koff) of 5.34e-05 s⁻¹ and an on-rate (kon) of 6.06e+06 M⁻¹ s⁻¹.

B8: humanized antibody 36G9.10-hz92 (antibody, human IgG1, kappa, N297A, V domains shown)
VH: B4 VH with M48I, I59K, A61D, E62P
VL: B4 VL with R69T, Y71F
On to B8, for which, in [4], the Kd was found to be 0.0152 nM, the koff stood at 7.69e-05 s⁻¹ and the kon was determined as 5.07e+06 M⁻¹ s⁻¹.
